Changes are numbered by the printed parent chain. In names and notes the source's numbering stands. Values belong to the binder of their own block, whether it stands above or below them. No end group written: not given here.
How the values were obtained:
M1-Ub4 = target: T1, M1-Ub4 (UniProt P0CG48 1-76; P0CG48 1-76; P0CG48 1-76; P0CG48 1-76); experiment: SPR; Biacore T200, 25 °C; wild-type or mutant His6-yNpl4^113–580, yUfd1–His6-yNpl4^113–580 or His6-hNpl4 immobilized on a CM5 chip by amine coupling; Ub2 or Ub4 in two-fold dilution series injected 60 s at 10 μL per min in 10 mM HEPES-NaOH pH 7.5, 150 mM NaCl, 0.05% Tween-20, 0.5 g/L BSA; equilibrium Kd; settings: both partners purified
T1 construct: ubiquitin (Ub), first unit; ubiquitin (Ub), second unit; ubiquitin (Ub), third unit; ubiquitin (Ub), fourth unit
T1 sequence (P0CG48 1-304, one chain of several): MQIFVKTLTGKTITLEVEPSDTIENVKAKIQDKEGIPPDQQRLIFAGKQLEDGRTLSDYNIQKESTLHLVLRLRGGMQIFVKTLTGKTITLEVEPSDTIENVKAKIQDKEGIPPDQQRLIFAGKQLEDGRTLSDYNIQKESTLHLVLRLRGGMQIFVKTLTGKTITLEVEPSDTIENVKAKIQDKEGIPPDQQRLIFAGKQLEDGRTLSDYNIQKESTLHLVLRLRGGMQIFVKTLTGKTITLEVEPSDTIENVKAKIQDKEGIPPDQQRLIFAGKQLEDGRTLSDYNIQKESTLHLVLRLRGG

His6-yNpl4^113–580 = target: T2, His6-yNpl4^113–580 (Saccharomyces cerevisiae, UniProt P33755 113-580); experiment: fluorescence polarisation; fluorescence anisotropy; 1 nM FlAsH-labeled His6-SUMO-yUfd1 peptide, His6-yNpl4^113–580 in two-fold dilution series; 25 °C; 50 mM Tris-HCl pH 8.0, 100 mM NaCl, 5 mM β-mercaptoethanol, 0.1 g/L BSA; settings: both partners purified
T2 construct: codon-optimized synthetic cDNA; also called WT; WT #1; source: E. coli Rosetta (DE3), purified (Ni-NTA, Resource Q); also in lysate, mixed with cells expressing GST-yUfd1 for co-purification; not shown: His6, N-terminal, kept
T2 sequence (looked up): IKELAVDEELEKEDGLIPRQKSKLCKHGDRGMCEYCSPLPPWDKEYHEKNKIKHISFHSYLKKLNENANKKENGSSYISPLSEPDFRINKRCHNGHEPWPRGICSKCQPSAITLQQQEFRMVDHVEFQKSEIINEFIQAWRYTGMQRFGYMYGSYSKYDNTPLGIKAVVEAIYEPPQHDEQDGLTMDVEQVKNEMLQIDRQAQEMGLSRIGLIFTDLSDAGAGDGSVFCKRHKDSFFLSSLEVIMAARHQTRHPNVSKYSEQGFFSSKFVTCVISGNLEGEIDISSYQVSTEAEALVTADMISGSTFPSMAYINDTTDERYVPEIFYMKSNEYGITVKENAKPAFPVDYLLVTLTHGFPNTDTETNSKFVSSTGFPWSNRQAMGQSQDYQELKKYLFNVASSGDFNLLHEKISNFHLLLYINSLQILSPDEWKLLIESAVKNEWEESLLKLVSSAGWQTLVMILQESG

B2: His6-yNpl4^113–580 M574A (domain or fragment, Saccharomyces cerevisiae, UniProt P33755 113-580, looked up)
chain: T2 sequence (looked up) with M462A
notes: source: E. coli Rosetta (DE3), purified (Ni-NTA, Resource Q); not shown: His6, N-terminal, kept
Kd (M1-Ub4): 291 µM

B3: FlAsH-labeled His6-SUMO-yUfd1^288–305-GWCCPGCC E296A (peptide, UniProt P53044 288-305, looked up)
chain: {His6-SUMO}-EPAKLDLPAGQLFFGFPMGWCCPGCC
modifications: cysteine pairing not given here; also: FlAsH label bound to CCPGCC motif
notes: Ufd1 of Saccharomyces cerevisiae (yUfd1), residues 288-305 (NBM); also called yUfd1 E296A; source: E. coli Rosetta (DE3) (pCold-SUMO), purified (Ni-NTA, Resource Q), labeled with FlAsH-EDT2; not shown: His6, N-terminal, kept; SUMO, N-terminal, kept
Kd (His6-yNpl4^113–580): 0.437 µM

B4: FlAsH-labeled His6-SUMO-yUfd1^288–305-GWCCPGCC L299A (peptide, UniProt P53044 288-305, looked up)
chain: {His6-SUMO}-EPAKLDLPEGQAFFGFPMGWCCPGCC
modifications: cysteine pairing not given here; also: FlAsH label bound to CCPGCC motif
notes: Ufd1 of Saccharomyces cerevisiae (yUfd1), residues 288-305 (NBM); also called yUfd1 L299A; source: E. coli Rosetta (DE3) (pCold-SUMO), purified (Ni-NTA, Resource Q), labeled with FlAsH-EDT2; not shown: His6, N-terminal, kept; SUMO, N-terminal, kept
Kd (His6-yNpl4^113–580): 12.7 µM

B6: FlAsH-labeled His6-SUMO-yUfd1^288–305-GWCCPGCC G297L (peptide, UniProt P53044 288-305, looked up)
chain: {His6-SUMO}-EPAKLDLPELQLFFGFPMGWCCPGCC
modifications: cysteine pairing not given here; also: FlAsH label bound to CCPGCC motif
notes: Ufd1 of Saccharomyces cerevisiae (yUfd1), residues 288-305 (NBM); also called yUfd1 G297L; source: E. coli Rosetta (DE3) (pCold-SUMO), purified (Ni-NTA, Resource Q), labeled with FlAsH-EDT2; not shown: His6, N-terminal, kept; SUMO, N-terminal, kept
Kd (His6-yNpl4^113–580): 0.619 µM

B8: FlAsH-labeled His6-SUMO-yUfd1^288–305-GWCCPGCC G297Y (peptide, UniProt P53044 288-305, looked up)
chain: {His6-SUMO}-EPAKLDLPEYQLFFGFPMGWCCPGCC
modifications: cysteine pairing not given here; also: FlAsH label bound to CCPGCC motif
notes: Ufd1 of Saccharomyces cerevisiae (yUfd1), residues 288-305 (NBM); also called yUfd1 G297Y; source: E. coli Rosetta (DE3) (pCold-SUMO), purified (Ni-NTA, Resource Q), labeled with FlAsH-EDT2; not shown: His6, N-terminal, kept; SUMO, N-terminal, kept
Kd (His6-yNpl4^113–580): 2.14 µM

B9: FlAsH-labeled His6-SUMO-yUfd1^288–305-GWCCPGCC M305A (peptide, UniProt P53044 288-305, looked up)
chain: {His6-SUMO}-EPAKLDLPEGQLFFGFPAGWCCPGCC
modifications: cysteine pairing not given here; also: FlAsH label bound to CCPGCC motif
notes: Ufd1 of Saccharomyces cerevisiae (yUfd1), residues 288-305 (NBM); also called yUfd1 M305A; source: E. coli Rosetta (DE3) (pCold-SUMO), purified (Ni-NTA, Resource Q), labeled with FlAsH-EDT2; not shown: His6, N-terminal, kept; SUMO, N-terminal, kept
Kd (His6-yNpl4^113–580): 0.261 µM

B11: FlAsH-labeled His6-SUMO-yUfd1^288–305-GWCCPGCC G297R (peptide, UniProt P53044 288-305, looked up)
chain: {His6-SUMO}-EPAKLDLPERQLFFGFPMGWCCPGCC
modifications: cysteine pairing not given here; also: FlAsH label bound to CCPGCC motif
notes: Ufd1 of Saccharomyces cerevisiae (yUfd1), residues 288-305 (NBM); also called yUfd1 G297R; source: E. coli Rosetta (DE3) (pCold-SUMO), purified (Ni-NTA, Resource Q), labeled with FlAsH-EDT2; not shown: His6, N-terminal, kept; SUMO, N-terminal, kept
Kd (His6-yNpl4^113–580): 20.9 µM

Now from value to binder:

Kd (M1-Ub4): 837 µM
B1: His6-yNpl4^113–580 I575A (domain or fragment, Saccharomyces cerevisiae, UniProt P33755 113-580, looked up)
chain: T2 sequence (looked up) with I463A
notes: as for B2

Kd (His6-yNpl4^113–580): 20.8 µM
B5: FlAsH-labeled His6-SUMO-yUfd1^288–305-GWCCPGCC F301A (peptide, UniProt P53044 288-305, looked up)
chain: {His6-SUMO}-EPAKLDLPEGQLFAGFPMGWCCPGCC
modifications: cysteine pairing not given here; also: FlAsH label bound to CCPGCC motif
notes: Ufd1 of Saccharomyces cerevisiae (yUfd1), residues 288-305 (NBM); also called yUfd1 F301A; source: E. coli Rosetta (DE3) (pCold-SUMO), purified (Ni-NTA, Resource Q), labeled with FlAsH-EDT2; not shown: His6, N-terminal, kept; SUMO, N-terminal, kept

Kd (His6-yNpl4^113–580): 0.527 µM
B7: FlAsH-labeled His6-SUMO-yUfd1^288–305-GWCCPGCC L294A (peptide, UniProt P53044 288-305, looked up)
chain: {His6-SUMO}-EPAKLDAPEGQLFFGFPMGWCCPGCC
modifications: cysteine pairing not given here; also: FlAsH label bound to CCPGCC motif
notes: Ufd1 of Saccharomyces cerevisiae (yUfd1), residues 288-305 (NBM); also called yUfd1 L294A; source: E. coli Rosetta (DE3) (pCold-SUMO), purified (Ni-NTA, Resource Q), labeled with FlAsH-EDT2; not shown: His6, N-terminal, kept; SUMO, N-terminal, kept

Kd (His6-yNpl4^113–580): 1.77 µM
B10: FlAsH-labeled His6-SUMO-yUfd1^288–305-GWCCPGCC F303A (peptide, UniProt P53044 288-305, looked up)
chain: {His6-SUMO}-EPAKLDLPEGQLFFGAPMGWCCPGCC
modifications: cysteine pairing not given here; also: FlAsH label bound to CCPGCC motif
notes: Ufd1 of Saccharomyces cerevisiae (yUfd1), residues 288-305 (NBM); also called yUfd1 F303A; source: E. coli Rosetta (DE3) (pCold-SUMO), purified (Ni-NTA, Resource Q), labeled with FlAsH-EDT2; not shown: His6, N-terminal, kept; SUMO, N-terminal, kept

Kd (His6-yNpl4^113–580): 5.29 µM
B12: FlAsH-labeled His6-SUMO-yUfd1^288–305-GWCCPGCC L292A (peptide, UniProt P53044 288-305, looked up)
chain: {His6-SUMO}-EPAKADLPEGQLFFGFPMGWCCPGCC
modifications: cysteine pairing not given here; also: FlAsH label bound to CCPGCC motif
notes: Ufd1 of Saccharomyces cerevisiae (yUfd1), residues 288-305 (NBM); also called yUfd1 L292A; source: E. coli Rosetta (DE3) (pCold-SUMO), purified (Ni-NTA, Resource Q), labeled with FlAsH-EDT2; not shown: His6, N-terminal, kept; SUMO, N-terminal, kept
